B1: Bcl-2-like protein 2 (Homo sapiens), Q92843 (parent)
chain: MATPASAPDTRALVADFVGYKLRQKGYVCGAGPGEGPAADPLHQAMRAAGDEFETRFRRTFSDLAAQLHVTPGSAQQRFTQVSDELFQGGPNWGRLVAFFVFGAALCAESVNKEMEPLVGQVQEWMVAYLETQLADWIHSSGGWAEFTALYGDGALEEARRLREGNWASVRTVLTGAVALGALVTVGAFFASK
B2: BH3-interacting domain death agonist (Homo sapiens), P55957 (parent)
chain: MDCEVNNGSSLRDECITNLLVFGFLQSCSDNSFRRELDALGHELPVLAPQWEGYDELQTDGNRSSHSRLGRIEADSESQEDIIRNIARHLAQVGDSMDRSIPPGLVNGLALQLRNTSRSEEDRNRDLATALEQLLQAYPRDMEKEKTMLVLALLLAKKVASHTPSLLRDVFHTTVNFINQNLRTYVRSLARNGMD
partner: B1 chain
B3: BH3-interacting domain death agonist (Homo sapiens), P55957 (parent)
chain: B2 chain
partner: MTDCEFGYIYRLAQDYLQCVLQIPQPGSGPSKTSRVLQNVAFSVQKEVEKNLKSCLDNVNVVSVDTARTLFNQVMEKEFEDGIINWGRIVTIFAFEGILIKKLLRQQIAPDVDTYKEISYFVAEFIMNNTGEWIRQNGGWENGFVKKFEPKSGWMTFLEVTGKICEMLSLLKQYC
B4: BH3-interacting domain death agonist (Homo sapiens), P55957 (parent)
chain: B2 chain

Variants of: B1
Conditions: with bid_mouse Bid

Question: MATPASAPDTRALVADFVGYKLRQKGYVCGAGPGEGPAADPLHQAMRAAGDEFETRFRRTFSDLAAQLHVTPGSAQQRFTQVSDELFQGGPNWGPLVAFFVFGAALCAESVNKEMEPLVGQVQEWMVAYLETQLADWIHSSGGWAEFTALYGDGALEEARRLREGNWASVRTVLTGAVALGALVTVGAFFASK [R95P] was tested. Which “effect of a mutation on the interaction” value did it give?
Answer: disrupting interaction

Variants of: B2
Conditions: with BCL2L2, Q92843

Question: Which “effect of a mutation on the interaction” value does the source give for MDCEVNNGSSLRDECITNLLVFGFLQSCSDNSFRRELDALGHELPVLAPQWEGYDELQTDGNRSSHSRLGRIEADSESQEDIIRNIARHAAQVGASMDRSIPPGLVNGLALQLRNTSRSEEDRNRDLATALEQLLQAYPRDMEKEKTMLVLALLLAKKVASHTPSLLRDVFHTTVNFINQNLRTYVRSLARNGMD [L90A;D95A] here?
Answer: disrupting interaction

Variants of: B3
Conditions: with BCL2A1, Q16548

Question: With MDCEVNNGSSLRDECITNLLVFGFLQSCSDNSFRRELDALGHELPVLAPQWEGYDELQTDGNRSSHSRLGRIEADSESQEDIIRNIARHAAQVGASMDRSIPPGLVNGLALQLRNTSRSEEDRNRDLATALEQLLQAYPRDMEKEKTMLVLALLLAKKVASHTPSLLRDVFHTTVNFINQNLRTYVRSLARNGMD [L90A;D95A] as the variant, how does the “effect of a mutation on the interaction” value read?
Answer: disrupting interaction

Variants of: B4
Conditions: with bcl2_human BCL2, P10415
Sequence of bcl2_human BCL2, P10415 (P10415 whole entry): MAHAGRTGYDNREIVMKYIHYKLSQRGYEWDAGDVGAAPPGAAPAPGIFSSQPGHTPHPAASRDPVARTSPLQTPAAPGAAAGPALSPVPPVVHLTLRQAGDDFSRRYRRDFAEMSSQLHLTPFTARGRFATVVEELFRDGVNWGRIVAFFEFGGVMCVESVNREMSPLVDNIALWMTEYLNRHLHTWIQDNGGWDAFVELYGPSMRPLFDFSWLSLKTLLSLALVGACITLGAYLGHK

Question: With MDCEVNNGSSLRDECITNLLVFGFLQSCSDNSFRRELDALGHELPVLAPQWEGYDELQTDGNRSSHSRLGRIEADSESQEDIIRNIARHAAQVGASMDRSIPPGLVNGLALQLRNTSRSEEDRNRDLATALEQLLQAYPRDMEKEKTMLVLALLLAKKVASHTPSLLRDVFHTTVNFINQNLRTYVRSLARNGMD [L90A;D95A] as the variant, how does the “effect of a mutation on the interaction” value read?
Answer: disrupting interaction

Variants of: B4
Conditions: with BCL2L1, Q07817
Sequence of BCL2L1, Q07817 (Q07817 whole entry): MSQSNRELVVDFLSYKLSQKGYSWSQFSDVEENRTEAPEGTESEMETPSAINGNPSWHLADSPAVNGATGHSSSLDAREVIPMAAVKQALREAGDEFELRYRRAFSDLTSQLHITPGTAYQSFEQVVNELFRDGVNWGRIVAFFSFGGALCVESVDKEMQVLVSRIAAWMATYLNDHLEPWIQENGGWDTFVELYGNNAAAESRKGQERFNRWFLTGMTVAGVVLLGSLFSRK

Question: How did the “effect of a mutation on the interaction” value turn out when MDCEVNNGSSLRDECITNLLVFGFLQSCSDNSFRRELDALGHELPVLAPQWEGYDELQTDGNRSSHSRLGRIEADSESQEDIIRNIARHAAQVGASMDRSIPPGLVNGLALQLRNTSRSEEDRNRDLATALEQLLQAYPRDMEKEKTMLVLALLLAKKVASHTPSLLRDVFHTTVNFINQNLRTYVRSLARNGMD [L90A;D95A] was run?
Answer: disrupting interaction

Variants of: B4
Conditions: with mcl1_human MCL1, Q07820
Sequence of mcl1_human MCL1, Q07820 (Q07820 whole entry): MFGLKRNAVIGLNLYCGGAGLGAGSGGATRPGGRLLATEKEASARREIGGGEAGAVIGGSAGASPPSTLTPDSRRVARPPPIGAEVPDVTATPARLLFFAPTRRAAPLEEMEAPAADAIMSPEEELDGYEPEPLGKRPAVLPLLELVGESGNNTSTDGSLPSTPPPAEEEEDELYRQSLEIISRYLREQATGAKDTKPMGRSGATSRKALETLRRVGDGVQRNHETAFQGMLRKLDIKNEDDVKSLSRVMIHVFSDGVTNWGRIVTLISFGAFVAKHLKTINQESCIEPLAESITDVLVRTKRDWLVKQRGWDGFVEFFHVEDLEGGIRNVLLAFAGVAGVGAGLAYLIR

Question: MDCEVNNGSSLRDECITNLLVFGFLQSCSDNSFRRELDALGHELPVLAPQWEGYDELQTDGNRSSHSRLGRIEADSESQEDIIRNIARHAAQVGASMDRSIPPGLVNGLALQLRNTSRSEEDRNRDLATALEQLLQAYPRDMEKEKTMLVLALLLAKKVASHTPSLLRDVFHTTVNFINQNLRTYVRSLARNGMD [L90A;D95A] was tested. Which “effect of a mutation on the interaction” value did it give?
Answer: disrupting interaction

Source: IntAct's records for PubMed 16697956
